In the DeepSol protein solubility set:

experiment: soluble on expression in E. coli; label from the status in PepcDB or PDB records

**Q.** Which “soluble on expression in E. coli” value does the source give for “MGSDKIHHHHHHMNTLTLEYIKSILPPRPDNSHKMTFGHVLNIAGSLHYRGAAYLSSLSALRVGAGYVTLASSPSVCDSVSALTPNIVTFALRTLSPLSVHSLQRTANLHLKDAQIVDVQTLSPQAVLQLRDKLTQASAISIGSGLSIGQSTDQCIDITAINTELTVDVDVTLCTEMSAEISTDLNSDLNSDLNSDLRSELPICNVIKDNQPHSNELIPPQGNHGFFYALLNEIQTCTKPVIFDADALNFISHLLNPPVPFGTTTVTLPNKSIITPHPKELARLLNMDVATLQTQRMHFARLAAKQLNTIVVLKGKNTVITDGNDVFINPTGNSALAKAGTGDVLTGMISGFCAQGVSPINAACLGVYLHGLAGNIAAEDLSQYGMLASDLLSYIPKAILKVLAI” here?
**A.** Its value is “not soluble”.

**Q.** With “MSNSKDLMSEFEKLRQETSKIQYSLIQKLPSEPSSFVENQLLLETQTLCGQLLKNQEEQNILNEKLRNEQKIIKLKHNTEMKSMRDKLETLTTAQAAQKLDFERHFEMMRQSHSAKIVKMERDLRNMKYDLHSLRSDMDSRKNCENRAAPKPEFQIFVKVLGVSYAFKIHREDTVFDIKNDIEHRHDIPQHSYWLSFSGKRLEDHCSIGDYNIQKSSTITMYFRSG” as the sequence, how does the “soluble on expression in E. coli” value read?
**A.** Its value is “not soluble”.

**Q.** Which “soluble on expression in E. coli” value does the source give for “MSLKKIEKIIEKEIHKNKLLQALMKKNQKTDKKTVFELVKQFNQKLNLTTILKTIRTKRSTYYYWLKAENKIKAKKEKYLLQQNRIKALCLHQQYFYGHRKITDLYQKTFNEFITKKKVYTIMKKNDINCRLRIKKNKYNYKNNLKTKLKVVDNLINQDFISIAPLQKLFTDITYFKIPQGFLYFSCIIDSFNNQIIASHTSKHQNKELVLNTIQKLPLLKEPCIIHSDQGTVYQSQKVQQTLTKKGFLISMSRKATPRDNAVIENFFGQMKTILQHQHPFLFQKSTKKLKKIINHFPKFWNNQWILAKLNYSSPSQYSQNLIEGHHHHHH” here?
**A.** The value was “not soluble”.

**Q.** For “MGKRMTFDTAKSRFQEKFPHLELLEFSGIYKPSSVRCPTHGVVQLLYYDTAIKSKYGCPECGKLKMKENTPPQNQKPVSILDTATGETLTFPSVQAAAKALNTPYGSIRTKLDGRSNPDNLVCNRYKVLL”, which “soluble on expression in E. coli” value is on record?
**A.** Its value is “soluble”.

**Q.** With “SMPHSVTLRGPSPWGFRLVGGRDFSAPLTISRVHAGSKAALAALCPGDLIQAINGESTELMTHLEAQNRIKGCHDHLTLSVSRPEGESDL” as the sequence, how does the “soluble on expression in E. coli” value read?
**A.** The value was “soluble”.

**Q.** For “MSLGTSYSEGVSSIHMVKGERGSNNLELTSESLSSTNDTIRRLQRDLLFLQNELRFEKFVRQQHLQNIGKLHREHILDMAVESERQKLLLTNKRYKAQIELLNSEIDKHRSESQAALNRRVKWENDFNNKIKALREEKKAWKSEESELKSSIESLISQLESIRNSQIDIAFSKNQLELKLQLYETKLKEYEQHLSCVNISKKQVSSSSDTSFGNTKMDSSMILSNSEAVSDEQERELIESEKHRMKLESENLHLQANIELLKKDLEAINVVYEAKIFDLEKRLSSEANAPELHNPVNLNYDAQLSKISEIKENYDELLTRYRELEGKFLESQAEVEELKNFQKPLVDTGSSIHSSPGLQEGHHHHHH”, which “soluble on expression in E. coli” value is on record?
**A.** Its value is “soluble”.

**Q.** With “DVETCRDERCYRLWINSLGIDSYVNNVFEDVRNGWILLEVLDKVSPSSVNWKHASKPPIKMPFRKVENCNQVIKIGKQLKFSLVNVAGNDIVQGNKKLILGLLWQLMRFHMLQLLKSLRSEMTDADILSWANRKVRTMGRKLQIESFKDKSLSSGLFFLNLLWAVEPRVVNWNLVTKGETDDEKRLNATYIVSVARKLGCSVFLLPEDIVEVNQKMILILTASIMYWSLQR” as the sequence, how does the “soluble on expression in E. coli” value read?
**A.** The value was “soluble”.

**Q.** For “MGSDKIHHHHHHMNALTWLTKHSQAVIFRKKLAGLTACSQMIELSTPLNDGQRKFIFRQQSARATLLAINYAQEAYILQHLDALPFTPKVYYQTANSSLLTWLEGKPATAFDPDLLEQLALQLATLHAYPLPKQRTILQLAERCQLLWDRLTPSQQHQLNFCPPFKKIEPLQLAICHHDLHLANLIQHQQQLFIIDWEYSAISDPVLEIALFFQANTLNSVQKQFFLTTYLSKINLNEPLFKQKMAEYTPAIQQLSQLWYALSEAIT”, which “soluble on expression in E. coli” value is on record?
**A.** The value was “not soluble”.

**Q.** With “MAQQHNDWADITSLDTFPKVLQHNAKHWPEQVAMREKEFGIWREFTWQDYENRVKWMALALQDLGIGEQDVVGLLGDNRPEWVWGELAAHAIKGYSLGIYQDSMHEEVAYLINYAKAKVVIAEDEEQCDKLLELGDEIPSVEYIIYCDPRGMRKYDDPRLIDVEQVYKKGQLIDKADPDKYLNMVAATKGSDLSILCTTSGTTSKPKLAQLHSGTFLDHCAAYLRADPRSPGDNYVSVLPLPWIMEQVYVVGQALISRQIVNFVEEQETMMSDLREIGPNFVLLAPRVWENIVADVSARMMDSTPFKQKMYKLGMSLANKALDQGKRSKLAEWILLRA” as the sequence, how does the “soluble on expression in E. coli” value read?
**A.** The value was “not soluble”.

**Q.** For “MAILQIGAGGVGWVVAHKAAQNNDVLGDITIASRTVGKCEKIIESIQKKNNLKDSTKKLEARAVNADDVDSLVALIEEVKPDLVINAGPPWVNMPIMEACYRAKVSYLDTSVAVDLCSEGQQVPEAYDWQWGYREKFEE”, which “soluble on expression in E. coli” value is on record?
**A.** The value was “not soluble”.

**Q.** For “MSLTERRQATAIVRAHGHTSLARLTLLEDKSYCFSPSGESLIAFVQRGRGAIALGDPIGPARDREAIIQQFLRECQQNDWLPAFYQVLPDDLPLYQRQGLASDQIGQEAVIPLQDFSLQGKRGRGFRSTLSRLERAGYRFEVIPAAEIYPLLPELRFVSDTWLKRMKGPEKRFSVGWFDRDYLTSGSIAVVRSQDGQIQAFANWVEEFQRNELTLDLIRFLPSAESSTMEFLLVNTILAAKDRGFDSFSLGLSALSGLDQLDQPNQVEQGLDYLYRHLDRFYRFQGLHSFKEKFHPDWQPRYFVYPNLAAIPSLVVTLVRADSGDRWLDYFRANDEGHHHHHH”, which “soluble on expression in E. coli” value is on record?
**A.** Its value is “not soluble”.

**Q.** With “PPIHPLTRAKLPDPYLMPVVSWNQSPQPPTTKEDALAKNPNREPIRCVDYHPFGVIGGRDILYGIVWGTRTA” as the sequence, how does the “soluble on expression in E. coli” value read?
**A.** Its value is “not soluble”.

**Q.** Which “soluble on expression in E. coli” value does the source give for “EDRPSKAPSFWYKIDPSHTQGYRTVQLVWKTLPPFEANGKILDYEVTLTRWKSHLQNYTVNATKLTVNLTNDRYLATLTVRNLVGKSDAAVLTIPACDFQATHPVMDLKAFPKDNMLWVEWTTPRESVKKYILEWCVLSDKAPCITDWQQEDGTVHRTYLRGNLAESKCYLITVTPVYADGPGSPESIKAYLKQAPPSKGPTVRTKKVGKNEAVLEWDQLPVDVQNGFIRNYTIFYRTIIGNETAVNVDSSHTEYTLSSLTSDTLYMVRMAAYTDEGGKDGPEFTFTTPK” here?
**A.** Its value is “soluble”.

**Q.** With “MIRLVAFDLDGTIGDTIPLCLAAFREATTPYVDHELSDDEIARTFGLNEEGMINQVVYGDSREKALNDFYVIYEEMHAILCPKPFEGMKTLIGQLHERNVIVVLITGKGIRSCDITLKQFGMDGCFDRIETGSSEKNRKSEAMKDILLYYGFKSNEMIYVGDAVSDIEACYFVKIQCLSAAWAASTDCEQLEKYNSGYVFSSVRLLRDFL” as the sequence, how does the “soluble on expression in E. coli” value read?
**A.** The value was “not soluble”.

**Q.** With “MGSDKIHHHHHHMTALRQDIDPNGLLEYSVVYTDRALNHMSKAFQEVMNDLLSNLKTVYNAEAAVIIPGSGTYGMEAVARQLTIDEDCLIIRNGWFSYRWTQILEKGKFAKSSTVLTAERTEDTEAPKPFAPVDIETAVAKIKEDKSAIVYAPHVETSSGIILSEEYIKALSEAVHSVGGLLVIDCIASGCVWLDMKELGIDVLISAPQKGWSSTPCAGLVMLSAAAIKKVESTESNCFSLDLKQWLTIMRAYENGGHAYHATMPTDSLRQFRDAILEAKEIGFDILRDAQWELGNRVRKVLTDKGIESVAAEGFEAPGVVVSYTERDDMHKGSAFAEAGLQIAAGVPLKVGEPDNFKTFRLGLFGLDKLTDIDGTVERFEKALDEVLAK” as the sequence, how does the “soluble on expression in E. coli” value read?
**A.** Its value is “not soluble”.

**Q.** Which “soluble on expression in E. coli” value does the source give for “SLLSIIPISAGIPLTETEPKQKWLEEWSKQLFVKVSIDSEYGWGEVLPAAFNSPALYADIVKRLEPSLNGMEISEPGIIWEKLRKLTFSGGYGPVIGAISGVDIALWDLKAKLSKLYLGDIFGKNEQKIARYASLSRYANYEAVIRASKNIVESGFKAIKLHQTKDDTLESVKRFREEIGYGVDLMVDLNCAMNIDEAIKFANSVQRYELKWVEEPIWPPDDLASLKKINDIVPVAAGENFFDFFKFEDAVHLEALTYYQPDVTKVGGLTPTLKILDLLKKNHEQVAFHNRPHNGWIGIFASIAAARMNGVDALIETPPNGVPSQYFRYNAMITSEVIAPNGVGLSIEPIEPLPQPKDEKILIFHD” here?
**A.** The value was “soluble”.

**Q.** With “MAMDTIAFAYMGGKEYEWLFFEVYDRVRRFYRDVRLPINIVYAGKIILPPGTLIRVETASGFVNMYSFEAVVEALYGKLVEMRDDVNDDSITKIFGITTFPIGSRDRYFDIYKKYLGIQVNVGDYHVLALSIKPFFTENKYLFIERVFKGVLHEIGHLYGLSHCHEDCVMNPPKDIKDWDLRTPTYCNTCLRKLKNKEELMPKLQLLEHHHHHH” as the sequence, how does the “soluble on expression in E. coli” value read?
**A.** Its value is “not soluble”.

**Q.** For “MAHHHHHHMDRLAGSFLSNGDVANASSLYNSLEKLNPTRYSRMARICRVLLNPQGVPLPHRHLDICEALLDPLVPPEVLLRDSAENVQKSFQRLAVCAHPDKNPSPSANEAFLRLTMMKDKALELLRNGVGRKCDGATEAPPGKAADSNGGKGKPKMQGSGPAVPTVAHRRRPLRPGVPLPAAATAVTSDINTAAAVSSKISQLRRTKITLNALKRKDIADDFEIFSATQRTTAVQSEVSHSDVGEDHLATTVPVMSTKERARCANRRRSQSSAPQEKTTTVPRASSPNSNPLLSSSLYYAMPVSPHKPLSPSPQTLEDPTGSVKSSGAGDRDASALYSPFIPTAAIPADSDAIRRQIDEACLRLREMRLQHTTVRLDLDLSFEAYERSKQPQ”, which “soluble on expression in E. coli” value is on record?
**A.** The value was “not soluble”.

**Q.** Which “soluble on expression in E. coli” value does the source give for “PSKKNGRSGPQPHKRWVFTLNNPSEDERKKIRDLPISLFDYFIVGEEGNEEGRTPHLQGFANFVKKQTFNKVKWYLGARCHIEKAKGTDQQNKEYCSKEGNLLMECGAPRSQGQR” here?
**A.** Its value is “soluble”.

**Q.** Which “soluble on expression in E. coli” value does the source give for “MDVLIIGGGEAGLVAGCRALTMGQKVILVEKNGYLGGATILNGSNVVGTGSDVAAQIFDNNHDTPEMLAQDVARESLETNYPALTDLMVHNIGPAIDFISKFADLHYQKAQTQTPEHSINRQIELPSASSYEFIQKVSKAFAAAGGQIMLDTRVEKLMLDNDKKLRGVIAAQKDQTVNIKARSVVLAAGGHGANQKMRGTESEGIDYYGPMTSTGDAYQFNGDLDLQTHDLGWYKLYPHGVEVEPGVAKLTTYASKQATDMGAIYVNSKGDRIVNESNVYTTFRNAILKQADKVAYLVMDERTWKKVYDLLILHDFTPEEIKSFFENKGKRPVFVKGSLESAAEQAGIVVDELVQTVKNYQGYVQDGHDHDFGRDPKYLHQFEGETFYIIEQRDRFATTLGGYSVDADNLQLVTTKNAPVANYFGAGEIIGGANGHDSMPSMMNTWGISSGYVAGAAASENAQRQATAGAAALEHHHHHH” here?
**A.** Its value is “not soluble”.

**Q.** For “PLGSQTTHELTIPNNLIGCIIGRQGANINEIRQMSGAQIKIANPVEGSSGRQVTITGSAASISLAQYLINARLSSEKGMGCS”, which “soluble on expression in E. coli” value is on record?
**A.** Its value is “soluble”.

**Q.** With “MHSVARENLQAYLHSYKLSSNEPGIKLMHNSQRDDQHRKDVEHFAALRALQHSKRKHVAFAVQAMRDYDGSLDEKSPLKDHTISFNTNDFIHIHTKFNSDWWIGRIVRSHSEFGFVPTARRLANYMVSDEDPPVKHNTSDHQDRSIWEPKCPYKVVPSSRPIVLLGPTLQHSRLTQLLHLALREEILKHFGKNMKYVKSDIGSGQQSGDRKGARWLRGLRDYDRGQDENQEVELIMRMTSKLHLLLVDSPHIHTPDDVQHLPLSPIFFLIRVSDNKILAKLLRNTGTTRMAAEIEVANVLKTMNDDRVGGHDDEQLIARGFEMVIEENGLREATRRIISYLEKYIHALHYHHKDDEI” as the sequence, how does the “soluble on expression in E. coli” value read?
**A.** Its value is “not soluble”.

**Q.** For “MQFSTLIRVAVFAVLAIATLADYDDNSVGTIPVAVDLDYFSNYVKKGGPQGPLRFGKRRGPSGPLRFGKRSSFHVAPAAEDVASWYQ”, which “soluble on expression in E. coli” value is on record?
**A.** The value was “not soluble”.
